According to US20230105029A1 (CHIA TAI TIANQING PHARMACEUTICAL GROUP, published 2023):
Substitutions are numbered along the chain they refer to. Like-named read-outs stand apart in the source and are kept apart here.

B1: huB8G11F2B7G5E8-V1 (antibody, human IgG4 S228P, kappa, V domains shown)
VH: EVQLVQSGAEVKKPGATVKISCKASGFNIKDTYMHWVKQAPGKGLEWVGRIDPTNGYTIYASKFQGKATITADTSSNTAYMELSSLRSEDTAVYHCVSRRPWFAYWGQGTLVTVSS
VL: DIVMTQTPLSLSVTPGQPASISCRSSQSIVHSNGNTYLEWYLQKPGQSPQLLIYKVTNRFSGVPDRFSGSGSGTDFTLKISRVEAEDVGVYYCFQGSHVPYTFGQGTKLEIKR
notes: Humanized, human IgG4/kappa; also called huBSG11F2B7G5E8-V1
B2: huB8G11F2B7G5E8-V13 (antibody, human IgG4 S228P, kappa, V domains shown)
VH: QVQLQQSGAELVKPGASVKLSCTASGFNIKDTYMHWVKQRPEQGLEWVGRIDPTNGYTIYASKFQGKATITADTSSNTAYMQLSSLTSEDTAVYHCVSRRPWFAYWGQGTTLTVSS
VL: B1 VL
notes: Humanized, human IgG4/kappa; also called huBSG11F2B7G5E8-V13
B3: huB8G11F2B7G5E8-V7 (antibody, human IgG4 S228P, kappa, V domains shown)
VH: B1 VH with S76T
VL: B1 VL
notes: Humanized, human IgG4/kappa; also called huBSG11F2B7G5E8-V7
B4: huB8G11F2B7G5E8-V6 (antibody, human IgG4 S228P, kappa, V domains shown)
VH: B1 VH with A68V
VL: B1 VL
notes: Humanized, human IgG4/kappa; also called huBSG11F2B7G5E8-V6
B5: huB8G11F2B7G5E8-V8 (antibody, human IgG4 S228P, kappa, V domains shown)
VH: B1 VH with N77D
VL: B1 VL
notes: Humanized, human IgG4/kappa; also called huBSG11F2B7G5E8-V8
B6: huB8G11F2B7G5E8-V5 (antibody, human IgG4 S228P, kappa, V domains shown)
VH: B1 VH with K67R
VL: B1 VL
notes: Humanized, human IgG4/kappa; also called huBSG11F2B7G5E8-V5
B7: huB8G11F2B7G5E8-V9 (antibody, human IgG4 S228P, kappa, V domains shown)
VH: B1 VH with H95Y
VL: B1 VL
notes: Humanized, human IgG4/kappa; also called huBSG11F2B7G5E8-V9
B8: huB8G11F2B7G5E8-V10 (antibody, human IgG4 S228P, kappa, V domains shown)
VH: B1 VH with K67R, A68V, S76T
VL: B1 VL
notes: Humanized, human IgG4/kappa; also called huBSG11F2B7G5E8-V10
B9: huB8G11F2B7G5E8-V11 (antibody, human IgG4 S228P, kappa, V domains shown)
VH: B1 VH with A24V, K38Q, V48M, R50L, S62E, K67R, A68V, S76T, N77D, H95Y
VL: B1 VL
notes: Humanized, human IgG4/kappa; also called huBSG11F2B7G5E8-V11
B10: huB8G11F2B7G5E8-V3 (antibody, human IgG4 S228P, kappa, V domains shown)
VH: B1 VH with K38Q
VL: B1 VL
notes: Humanized, human IgG4/kappa; also called huBSG11F2B7G5E8-V3
B11: huC2C1A1A1-V4 (antibody, human IgG4 S228P, kappa, V domains shown)
VH: EVQLVESGGGLVQPGGSLRLSCAASGFTFSTYGMSWVRQAPGKGLVWVSTINSNGGSTSYPDSVKGRFTISRDNAKNTLYLQMNSLRAEDTAVYYCARFFRFRNAMDYWGQGTLVTVSS
VL: DIQMTQSPSSLSASVGDRVTITCRTSENIYSYLAWYQQKPGKAPKFLIYNAKTLAEGVPSRFSGSGSGTDFTLTISSLQPEDFATYYCQHYYGPPTWTFGQGTKVEIKR
notes: Humanized, human IgG4/kappa
B12: huC2C1A1A1-V10 (antibody, human IgG4 S228P, kappa, V domains shown)
VH: B11 VH with W47L, S49A
VL: DIQMTQSPSSLSASVGQRVTITCRTSENIYSYLAWYQQKQGKPPRFLIYNAKTLAEGVPSRFSGSGSGTEFTLTITSLQAEDFGVYYCQHYYGPPTWTFGPGTKLEIKR
notes: Humanized, human IgG4/kappa
B13: huC2C1A1A1-V6 (antibody, human IgG4 S228P, kappa, V domains shown)
VH: B11 VH with A40S, G42D, G44R, V46E, N84R
VL: B12 VL
notes: Humanized, human IgG4/kappa
B14: huC2C1A1A1-V12 (antibody, human IgG4 S228P, kappa, V domains shown)
VH: B11 VH with W47L, S49A
VL: B11 VL
notes: Humanized, human IgG4/kappa
B15: huC2C1A1A1-V13 (antibody, human IgG4 S228P, kappa, V domains shown)
VH: B11 VH with S49A
VL: B11 VL with F46L
notes: Humanized, human IgG4/kappa
B16: huC2C1A1A1-V11 (antibody, human IgG4, V domains shown)
VH: B11 VH with W47L, S49A
VL: B11 VL with I48V
notes: Humanized, human IgG4/kappa
B17: huC2C1A1A1-V8 (antibody, human IgG4 S228P, kappa, V domains shown)
VH: B11 VH with A40S, G42D, G44R, V46E, N84R
VL: B11 VL
notes: Humanized, human IgG4/kappa
B18: huC2C1A1A1-V3 (antibody, human IgG4, V domains shown)
VH: B11 VH
VL: B11 VL with I48V
notes: Humanized, human IgG4/kappa
B19: huC2C1A1A1-V1 (antibody, human IgG4 S228P, kappa, V domains shown)
VH: B11 VH
VL: B11 VL with F46L
notes: Humanized, human IgG4/kappa
B20: huC2C1A1A1-V2 (antibody, human IgG4 S228P, kappa, V domains shown)
VH: B11 VH
VL: B12 VL
notes: Humanized, human IgG4/kappa
B21: huC2C1A1A1-V16 (antibody, human IgG4 S228P, kappa, V domains shown)
VH: B11 VH with S49A
VL: B11 VL
notes: Humanized, human IgG4/kappa
B22: huC2C1A1A1-V9 (antibody, human IgG4 S228P, kappa, V domains shown)
VH: B11 VH with W47L, S49A
VL: B11 VL with F46L
notes: Humanized, human IgG4/kappa
B23: huC2C1A1A1-V7 (antibody, human IgG4, V domains shown)
VH: B11 VH with A40S, G42D, G44R, V46E, N84R
VL: B11 VL with I48V
notes: Humanized, human IgG4/kappa
B24: huC2C1A1A1-V5 (antibody, human IgG4 S228P, kappa, V domains shown)
VH: B11 VH with A40S, G42D, G44R, V46E, N84R
VL: B11 VL with F46L
notes: Humanized, human IgG4/kappa

Tests used:
[1] = target: T1, recombinant human IL4Rα-his protein (in house made) (human, UniProt P24394 26-232, limits assumed); test: SPR (Biacore), antibody captured, IL4Rα-his flowed
T1 construct: also called Human IL4Ra-his

[2] = target: T1, recombinant human IL4Rα-his protein (in …); test: SPR (Biacore), antibody captured, IL4Rα-his flowed; remark: listed apart in the source

| Binder | Kd [1] [nM] | koff [1] [s⁻¹] | kon [1] [M⁻¹ s⁻¹] | Dissociation % [2] [%] | End (RU) [2] [RU] | Kd [2] [nM] | Start (RU) [2] [RU] | koff [2] [s⁻¹] | kon [2] [M⁻¹ s⁻¹] |
| --- | --- | --- | --- | --- | --- | --- | --- | --- | --- |
| B1 | 3.73 | 0.00208 | 557000 | – | – | – | – | – | – |
| B2 | 3.87 | 0.0012 | 310000 | – | – | – | – | – | – |
| B3 | 3.75 | 0.00222 | 592000 | – | – | – | – | – | – |
| B4 | 3.95 | 0.00219 | 554000 | – | – | – | – | – | – |
| B5 | 4.89 | 0.00283 | 578000 | – | – | – | – | – | – |
| B6 | 4.13 | 0.00241 | 584000 | – | – | – | – | – | – |
| B7 | 5.32 | 0.00331 | 621000 | – | – | – | – | – | – |
| B8 | 4.79 | 0.0028 | 585000 | – | – | – | – | – | – |
| B9 | 14.9 | – | – | – | – | – | – | – | – |
| B10 | 3.57 | 0.00199 | 558000 | – | – | – | – | – | – |
| B11 | – | – | – | 0.2 | 49.6 | < 0.022 | 49.5 | < 1e-05 | 455000 |
| B12 | – | – | – | -1.54 | 63.9 | < 0.0304 | 64.9 | < 1e-05 | 329000 |
| B13 | – | – | – | -0.59 | 50.6 | < 0.0261 | 50.9 | < 1e-05 | 383000 |
| B14 | – | – | – | -1.88 | 52.1 | 0.047 | 53.1 | 1.42e-05 | 302000 |
| B15 | – | – | – | 0.82 | 36.7 | < 0.0838 | 36.4 | < 1e-05 | 119000 |
| B16 | – | – | – | -0.92 | 53.7 | < 0.0303 | 54.2 | < 1e-05 | 330000 |
| B17 | – | – | – | -1.23 | 64.4 | < 0.036 | 65.2 | < 1e-05 | 278000 |
| B18 | – | – | – | -0.62 | 48.3 | < 0.0389 | 48.6 | < 1e-05 | 257000 |
| B19 | – | – | – | 0.23 | 44 | < 0.0773 | 43.9 | < 1e-05 | 129000 |
| B20 | – | – | – | -0.2 | 50.3 | < 0.0442 | 50.4 | < 1e-05 | 226000 |
| B21 | – | – | – | -0.42 | 47.1 | < 0.0338 | 47.3 | < 1e-05 | 296000 |
| B22 | – | – | – | -0.24 | 41.1 | < 0.0507 | 41.2 | < 1e-05 | 197000 |
| B23 | – | – | – | -0.66 | 60.1 | < 0.038 | 60.5 | < 1e-05 | 263000 |
| B24 | – | – | – | -2.28 | 64.3 | 0.0283 | 65.8 | 7.5e-05 | 2.65e+06 |
